Laboratory results reported in the nanobody polyreactivity screen of Harvey et al. (2022).

Assay: yeast display, Sf9 membrane polyspecificity reagent, FACS + sequencing; frameworks hold sequencing errors
Outline: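 Using colony PCR, genes from sorted yeast display clones were amplified, then sequenced on MiSeq at 2 × 250 and filtered by CDR length. The clones had been stained with 10% biotinylated, detergent-solubilized Sf9 membrane reagent for 1 hour at 4 °C and sorted by FACS into low and high (top ~1%) gates on anti-HA and streptavidin fluorescence. Polyreactivity labels come from the gate of origin.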

For “QVQLVESGGGLVQAGGSLRLSCAASGSIFDVNTMGWYRQAPGKERELVAAITNGYRTNYADSVKGRFTISRDNAKNTVYLQMNILKPEDTSVYYCNTDQGTTSDYCFWGQGTQVTVSS”, the “polyreactivity (PSR sort gate)” value was “low polyreactivity”.

In the case of “QVQLVESGGGLVQAGGSLRLSCAASGSIFDVYAMGWSRQAAGTERELVAAIDSGGSSTYYADSVKGRFTISRDNAKNSVYLQMNSLKPEDTAVYYCAARPYYSWNYDYWGQGTQVTVSS”, the “polyreactivity (PSR sort gate)” value is reported as “low polyreactivity”.

With “QVQLVESGGGLVQAGGSLRLSCAASGSIFDYKAMGWYRQAPGKERELFADITISDDSTYYADSVKGRFTISRDNAKNTVYLQMNSLKPEDTAVYYCAADIKYYWYYYYWAYAYDYWGHGTQVTVSS” the “polyreactivity (PSR sort gate)” value was “high polyreactivity”.

In the case of “QVQLVESGGGLVQAGGSLRLSCAASGSIFDYNAMGWYRQAPGKERELVAAISSGGSTYYADSVKGRFTISRDNAKNTVYLQMNSLKPEDTEVYYCAVKVWLVIQFDYWGQGTPVTVSS”, the “polyreactivity (PSR sort gate)” value is reported as “low polyreactivity”.

With “QVQLVESGGGLVQAGGSLRLSCAASGSIFDYNAMGWYRQAPGKERELVAAISVSGGSTYYADSVKGRFTISRDNAKNTVYLQMNSLKPEDTAVYYCAAETWTYGWSYDYWGQGTQVTVSS” the “polyreactivity (PSR sort gate)” value was “high polyreactivity”.

For “QVQLVESGGGLVQAGGSLRLSCAASGSIFDYNAMGWYRQAPGKERELVAAITSTDSTYADSVKGRFTISRDNAKNTVYLQMNSLKPEDTAVYYCAAEDVIYYLTGQWREYDYWGQGTQVTVSS”, the “polyreactivity (PSR sort gate)” value was “low polyreactivity”.

In the case of “QVQLVESGGGLVQAGGSLRLSCAASGSIFDYNPMGWYTQAPGKERELVADITSGGSTYYADSVKGRFTISRDNAKNTVYLQMNSLKPEDTAVYYCNADDAVEYSYGGGTEFYYWGQGTQVSVSS”, the “polyreactivity (PSR sort gate)” value is reported as “low polyreactivity”.

For “QVQLVESGGGLVQAGGSLRLSCAASGSIFDYNTMGWYRQAPGKERELVAAISSGGSTYYADSVKGRFTISRDNAKNTVYLQMNSLKPEDTAVYYCAARRAGWWGFYYWGQGTQVTVSS”, the “polyreactivity (PSR sort gate)” value was “high polyreactivity”.

For “QVQLVESGGGLVQAGGSLRLSCAASGSIFDYNTMGWYSQAPGKERELVAAISSGGSTYYADSVKGRFTISRDNAKTTVYLQMKSLKPEDTAVYYCAARRAGWWGFYYWGQGTQVTVSS”, the “polyreactivity (PSR sort gate)” value was “high polyreactivity”.

With “QVQLVESGGGLVQAGGSLRLSCAASGSIFDYNVMGWSRQAPGKERELVAAITYNDGSTYYGDSVKGRFTISRDYAKNTVYLQMNSLKPEDTAVYYCNAEQTPSGLYDYRGVEGEMGYWGQGTQVTVSS” the “polyreactivity (PSR sort gate)” value was “low polyreactivity”.

For “QVQLVESGGGLVQAGGSLRLSCAASGSIFDYYAMGWYRQAPGKERELVAAIDSGDITYYADSVKGRFTISRDNAKNTFYLQMNRLKPEDTAVYYCAAEGTGYSVGWQYGYWGQGTQVSVSS”, the “polyreactivity (PSR sort gate)” value was “low polyreactivity”.

With “QVQLVESGGGLVQAGGSLRLSCAASGSIFDYYAMGWYRQAPGKERELVATISGGGGTTYYADSVKGRFTISRDTAKNTVYLQMNSLKPEDTAVYYCAADSLGYNYWGQGTQVTVSS” the “polyreactivity (PSR sort gate)” value was “low polyreactivity”.

With “QVQLVESGGGLVQAGGSLRLSCAASGSIFDYYAMGWYRQAPGKERELVATISWIGDRTYYADSVKGRFTISRDNAKNTVYLQMNSLKPEDTAVYYCATDYYEDWRGYVDYWYRPYDYWGHGTQVTVSS” the “polyreactivity (PSR sort gate)” value was “high polyreactivity”.

In the case of “QVQLVESGGGLVQAGGSLRLSCAASGSIFDYYTMGWYRQAPGKERELVATIRSGDSTNYADSVKGRFTISRDNAKNPVYVQMNSLKPEDTAVYYCAADDGAYPTLYDYWGQGTQVTVSS”, the “polyreactivity (PSR sort gate)” value is reported as “low polyreactivity”.

With “QVQLVESGGGLVQAGGSLRLSCAASGSIFEDYAMGWYRQAPGKERELDAAIDWGDGDTYYADSVKGRFTISRDNAKNSVYLQMNSLKPEDTAVYYCAADLVGYSGDYFDEEYYWGQGTQVTVSS” the “polyreactivity (PSR sort gate)” value was “high polyreactivity”.

For “QVQLVESGGGLVQAGGSLRLSCAASGSIFEDYTRGWYRQAPGKERELVAAIDWSDASTFYADSVKGRFTISRDNAKNTVYLQMSLNPEDTAVYYCNVAIIFYDDDYWGQGTQVTVSS”, the “polyreactivity (PSR sort gate)” value was “high polyreactivity”.

With “QVQLVESGGGLVQAGGSLRLSCAASGSIFEEYAMGWYRQAPGKERELVARIDESGGSTYYADSVKGRFTISRDNAKNTVYLQMNSLKPEDTAVYYCAAERYSDSWGFYSVDEGSWEMDYWGQGTQVTVSS” the “polyreactivity (PSR sort gate)” value was “low polyreactivity”.

With “QVQLVESGGGLVQAGGSLRLSCAASGSIFEFNTMGWYRQAPGKERELVAAISSADTTNYADSVKGRFTISRDNAKNTVYLQMNSLKPEDTAVYYCNKELHLSATLRVLGFDYWGQGTQVTVSS” the “polyreactivity (PSR sort gate)” value was “low polyreactivity”.

For “QVQLVESGGGLVQAGGSLRLSCAASGSIFEGNAMGWYRQAPGKERELVAAISTTGGITYYADSVKGRFTISRDKAKNTVYLQMNSLKPEDTAVYYCAADPSQPRIDSSNYDYWGQGTQVTVSS”, the “polyreactivity (PSR sort gate)” value was “low polyreactivity”.

In the case of “QVQLVESGGGLVQAGGSLRLSCAASGSIFEIYAMGWYRQAPGKERELVAAISWSGGRTYYADSVKGRFTISRDNAKNTVYLQMNSLKPEDTAVYYCNAGQWRYPGLYYYWGQGTEVTVSS”, the “polyreactivity (PSR sort gate)” value is reported as “high polyreactivity”.

In the case of “QVQLVESGGGLVQAGGSLRLSCAASGSIFEIYDMGWYRQAPGKERELVASIRTSGGSTYYADSVKGRFTISRDNAKNTVYLQMNSLKPEDTAVYYCATGWSWYHPDYDYWGQGTQVTVSS”, the “polyreactivity (PSR sort gate)” value is reported as “low polyreactivity”.

In the case of “QVQLVESGGGLVQAGGSLRLSCAASGSIFENNAMGWYRQAPGKERELVAAISSDDTTNYADSVKGRFTISRDNAKNTVYLQMNSLKPEDTAVYYCATDYDVYGYPYDYGYWGQGTQVTVSS”, the “polyreactivity (PSR sort gate)” value is reported as “low polyreactivity”.

In the case of “QVQLVESGGGLVQAGGSLRLSCAASGSIFENNAMGWYRQAPGKERELVAAISSDDTTNYADSVKGRFTISRDNAKNTVYLQMNSLKPEDTAVYYCATDYYVYGYPYDYGYWGQGTQVTVSS”, the “polyreactivity (PSR sort gate)” value is reported as “low polyreactivity”.

With “QVQLVESGGGLVQAGGSLRLSCAASGSIFENNVMGWYRQAPGKERELVAVISWNGGRTYYADSVKGRFTISRDNAKNTVYLQMNSLKPEDTAVYYCNAQGYFWSESIEYDYWGQGTQVTVSS” the “polyreactivity (PSR sort gate)” value was “low polyreactivity”.

In the case of “QVQLVESGGGLVQAGGSLRLSCAASGSIFEPNAMGRYRQAPGKEREFVAAISGSGGSTYYADSVKGRFTISRDNAKNTVYLQMNSLKPEDTAVYYCATRGKRSYFRTFYYWGEGTQVTVSS”, the “polyreactivity (PSR sort gate)” value is reported as “high polyreactivity”.

In the case of “QVQLVESGGGLVQAGGSLRLSCAASGSIFEPYAMGWYRQAPGKERELVAAIRVSGGSTYYADSVKGRFTISRDNAKNTVYLQMNSLKPEDTAVYYCAADWWSRYYYWGQGTQVTVSS”, the “polyreactivity (PSR sort gate)” value is reported as “high polyreactivity”.

For “QVQLVESGGGLVQAGGSLRLSCAASGSIFEPYTMGWYRQAPGKERELVAAITGSGGSTFYADSVKGRFTISRDNAKNTVYLQMNSLKPEDTAVDYCNAYAYPYTDVDYWGQGTQVTVSS”, the “polyreactivity (PSR sort gate)” value was “low polyreactivity”.

For “QVQLVESGGGLVQAGGSLRLSCAASGSIFEPYVMGWYRQAPGKERELVAAIRQTGGSTYYADSVKGRFTISRDNAKNTVYLQMNSLKPEDTAVYYCNAEQNPSGLYDYRGVEGEMGYWGQGTQVTVSS”, the “polyreactivity (PSR sort gate)” value was “low polyreactivity”.

In the case of “QVQLVESGGGLVQAGGSLRLSCAASGSIFEQYTMGWYRQAPGKERELVAAISRRSGRTYYADSVKGRFTISRDNAKNTVYLQMNRLKPEDTAVYYCNTVYYGNFYSTRYDYWGQGTQVTVSS”, the “polyreactivity (PSR sort gate)” value is reported as “high polyreactivity”.

With “QVQLVESGGGLVQAGGSLRLSCAASGSIFERNAMGWYRQAPGKERELVAGISSSGRTNYADSVKGRFTISRDNAKNTVYLQMNSLKPEDTAVYYCSADTYLYWEYDYWGQGTQVTVSS” the “polyreactivity (PSR sort gate)” value was “low polyreactivity”.

With “QVQLVESGGGLVQAGGSLRLSCAASGSIFERYAMGWYRQSPGKEREFVATITSGGGRTYYADSVKGRFTISRENAKNTVYLQMNSLKPEDTAVYYCGAASYRRQPFNYWGQGTQVTVSS” the “polyreactivity (PSR sort gate)” value was “high polyreactivity”.

In the case of “QVQLVESGGGLVQAGGSLRLSCAASGSIFERYSMGWYRQATGKERELFATISKSGDSKYYADSVKGRFTISRDNAKNTVYFQMNRLKPEDTAVYYCSADGWYETSDATFYYWGQGTQVNVSS”, the “polyreactivity (PSR sort gate)” value is reported as “low polyreactivity”.

In the case of “QVQLVESGGGLVQAGGSLRLSCAASGSIFESNAMGWYRQAPGKERELVAAYADSVKGRFTISRDNAKNTVYLQMNSLKPEDTAVYYCAKSLSLYVVPLYEYWGQGTQVTVSS”, the “polyreactivity (PSR sort gate)” value is reported as “low polyreactivity”.

For “QVQLVESGGGLVQAGGSLRLSCAASGSIFESYVMGWYRQAPGKERELVAAISYTGDDTYYADSVKGRFTISRDNAKNTVYLQMNSLKPEDTAVYYCNADNYYYYPWYVRALDSWGQGTQVTVSS”, the “polyreactivity (PSR sort gate)” value was “low polyreactivity”.

For “QVQLVESGGGLVQAGGSLRLSCAASGSIFEVYAMGWYRQAPGKEREFVATISGSGGSTYYADSVKGRFTISRDNAKNTVYLQMNSLKPEDTAVYYCAASIAWYSSFVITYYYWGQGTQVTVSS”, the “polyreactivity (PSR sort gate)” value was “low polyreactivity”.

For “QVQLVESGGGLVQAGGSLRLSCAASGSIFEWYAMGWYRQAPGKERELVATITGSGGSTYYADSVKGRFTISRDNAKNTVYLQMNSLKPEDTAVYYCAAVPPPGGLDYWGQGTQVTVSS”, the “polyreactivity (PSR sort gate)” value was “high polyreactivity”.

For “QVQLVESGGGLVQAGGSLRLSCAASGSIFEYYAMGWYRQAPGKERELVAAITWSGGSTYYADSVKGRFTISRDNAKNTVYLQMNSLKPEDTAVYYCAKGYYVYGIFHRFGYYWGQGTQVTVSS”, the “polyreactivity (PSR sort gate)” value was “high polyreactivity”.

In the case of “QVQLVESGGGLVQAGGSLRLSCAASGSIFFDGNAMGWYRQAPGKERELVAAISVSGGSTYYADSVKGRFTISRDNAKNTVYLQMNSLKAEDTAVYYCAKYPSKSYVPGDYWGQGTQVTVSS”, the “polyreactivity (PSR sort gate)” value is reported as “low polyreactivity”.

For “QVQLVESGGGLVQAGGSLRLSCAASGSIFFENDMGWYRQAPGKEREFVAAISLSSASTYYADSVKGRFTISRDNAKNTVYLQMNSLKPEDTAVYYCAADAIFGWPTFDYWGQGTQVTVSS”, the “polyreactivity (PSR sort gate)” value was “low polyreactivity”.

In the case of “QVQLVESGGGLVQAGGSLRLSCAASGSIFFGNAMGWYRQAPGKERELVAAIDGTGASTYYADSVKGRFTISRDNAKNTVYLQMNSLKPEDTAVYYCNKALTSKDYPVRTVERDYWGQGTKVTVSS”, the “polyreactivity (PSR sort gate)” value is reported as “low polyreactivity”.

In the case of “QVQLVESGGGLVQAGGSLRLSCAASGSIFFGYAMGWYRQAPGKERELVAAISTRGGRSYYADSVKGRFTISRDNAKNTVYFQMNSLKPVDTAVYYCNAASLVQAYSHADERYDYWGQGTQVTVSS”, the “polyreactivity (PSR sort gate)” value is reported as “high polyreactivity”.

For “QVQLVESGGGLVQAGGSLRLSCAASGSIFFGYAMGWYRQAPGKERELVAGISSNGGTTYYADSVKGRFTISRDHANNTVNLQMNSQKPEDTAVYDCATQYYARGYLYDYWGQGTQVTVSS”, the “polyreactivity (PSR sort gate)” value was “low polyreactivity”.

In the case of “QVQLVESGGGLVQAGGSLRLSCAASGSIFFINAMGWYRQAPGKERELVASISQSGVSTYYADSVKGRFTISRDNAKNTVYLQMNSLKPEDTAVYYCATGPVRRARYVWSYTYYYWGQGTQVTVSS”, the “polyreactivity (PSR sort gate)” value is reported as “low polyreactivity”.
